According to paper PMC6399351, “Cationic Intrinsically Disordered Antimicrobial Peptides (CIDAMPs) Represent a New Paradigm of Innate Defense with a Potential for Novel Anti-Infectives” (Scientific Reports, 2019):

B1: PAD1-deiminated rHRNR2591-2684: Protein Arginine Deiminase 1 (PAD1)-deiminated rHRNR2591–2684, Arg citrullinated (protein, UniProt Q86YZ3 2591-2684, looked up, fragment)
chain: SQHGSGSGHSSGYGQHGSRSGQSSRGERHGSSSGSSSHYGQHGSGSRQSSGHGRQGSGSGQSPSRGRHGSGLGHSSSHGQHGSGSGRSSSRGPY
modifications: PAD1-deiminated, arginines citrullinated
notes: Protein Arginine Deiminase 1 (PAD1)-deiminated rHRNR2591–2684, Arg citrullinated
B2: rHRNR2576–2707: recombinant HRNR fragment (protein, UniProt Q86YZ3 2576-2707, looked up, fragment)
chain: GFGHHESSSGQSSSYSQHGSGSGHSSGYGQHGSRSGQSSRGERHGSSSGSSSHYGQHGSGSRQSSGHGRQGSGSGQSPSRGRHGSGLGHSSSHGQHGSGSGRSSSRGPYESRLGHSSVFGQHESGSGHSSAY

How the values were obtained:
trypsin = assay type: in vitro ADME
Excerpt: (§1) All data shown are representatives (n = 3).
(§2) Lane 16 (“without protease”)
(§3) Table 1) have been directly applied. Note the presence of multiple bands, which originate
(§4) from oligomeric HRNR-complexes12. Data shown are representatives (n=3).

KLK7 = target: T1, KLK7 (Homo sapiens, UniProt P49862); assay: Protease sensitivity testing of HRNR; assay type: in vitro ADME; details: 500 ng, 0.7 nM protease, pH 7.5, 15 h, Western blot, n = 3
T1 construct: purchased R&D
T1 sequence (P49862 30-253): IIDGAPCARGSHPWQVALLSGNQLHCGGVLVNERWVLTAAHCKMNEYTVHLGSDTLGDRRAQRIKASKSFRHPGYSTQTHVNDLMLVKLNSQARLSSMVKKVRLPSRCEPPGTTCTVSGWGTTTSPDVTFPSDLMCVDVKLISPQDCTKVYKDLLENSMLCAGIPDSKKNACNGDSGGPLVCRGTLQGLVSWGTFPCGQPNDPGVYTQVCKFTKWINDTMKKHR
Experimental: as §2
(§5) Table 1) have been directly applied. Note the presence of multiple bands, which originate from oligomeric HRNR-complexes12. Data shown are representatives (n=3).
(§6) Supplementary Fi gur e 14 :
(§7) For SDS-PAGE analyses 250 ng of […]
(§8) manner, however in the absence of a protease. […]
(§9) have been directly applied. Note a marked decrease of PAD1-deiminated rHRNR2591-2684 electromobility (lane 16) relative to rHRNR2591-2684 (lane 17). D ata shown are represent a tives

KLK1 = target: T2, KLK1 (Homo sapiens, UniProt P06870); assay: Protease sensitivity testing of HRNR; assay type: in vitro ADME; details: 500 ng, 0.7 nM protease, pH 7.5, 15 h, Western blot, n = 3
T2 construct: purchased R&D
T2 sequence (P06870 25-262): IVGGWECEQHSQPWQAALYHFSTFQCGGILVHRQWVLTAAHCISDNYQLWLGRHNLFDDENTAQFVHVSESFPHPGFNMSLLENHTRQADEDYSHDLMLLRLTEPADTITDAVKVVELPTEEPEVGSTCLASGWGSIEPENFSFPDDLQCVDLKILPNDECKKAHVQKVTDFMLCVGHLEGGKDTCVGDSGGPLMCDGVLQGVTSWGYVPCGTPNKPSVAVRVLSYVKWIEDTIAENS
Experimental: as §2, §5, §6, §7, §8, §9

Lys-C = target: T3, Lys-C (Lysobacter enzymogenes, UniProt Q7M135); assay: Protease sensitivity testing of HRNR; assay type: in vitro ADME; details: n = 3
T3 construct: purchased Roche
T3 sequence (Q7M135 whole entry): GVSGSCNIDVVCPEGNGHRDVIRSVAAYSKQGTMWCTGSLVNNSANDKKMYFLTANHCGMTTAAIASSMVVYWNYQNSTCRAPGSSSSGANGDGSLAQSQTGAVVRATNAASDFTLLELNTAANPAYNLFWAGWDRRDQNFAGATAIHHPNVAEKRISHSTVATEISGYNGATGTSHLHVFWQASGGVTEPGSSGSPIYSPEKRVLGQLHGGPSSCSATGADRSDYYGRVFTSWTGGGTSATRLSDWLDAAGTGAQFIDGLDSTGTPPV
Excerpt: as §1
Thereafter samples were subjected to a
Data shown are representatives
as §2, §3, §4

C. albicans ATCC 24433 = assay: CFU assay of antimicrobial activity; assay type: cell-based, Candida albicans; details: 10 mM NaP, pH 5.5, 0.25% glucose
enterokinase EKMax = target: T4, enterokinase EKMax (Bos taurus, UniProt P98072); assay: Protease sensitivity testing of HRNR; assay type: in vitro ADME; details: 10 µg, 18 h 37 °C, 0,1 U to 0,0001 U, SDS-PAGE and HRNR Western blot, n = 3
T4 construct: purchased Invitrogen
T4 sequence (P98072 801-1035 limits assumed): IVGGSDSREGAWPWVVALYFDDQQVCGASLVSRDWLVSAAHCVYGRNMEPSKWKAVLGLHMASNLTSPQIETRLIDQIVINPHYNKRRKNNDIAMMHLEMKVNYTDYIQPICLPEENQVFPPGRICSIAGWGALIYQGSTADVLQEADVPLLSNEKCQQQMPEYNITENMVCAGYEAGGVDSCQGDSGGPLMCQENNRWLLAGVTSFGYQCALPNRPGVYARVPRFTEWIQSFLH
Excerpt: as §1

E. coli ATCC 11775 = assay: CFU assay of antimicrobial activity; assay type: cell-based, Escherichia coli; details: 10 mM NaP, pH 5.5, 0.25% glucose
Outline: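 Early log-phase bacteria grown in BHI were exposed at 10^4–10^5 CFU/ml for 2 h at ambient temperature. Two-fold serial dilutions spanned 300 or 150 µg/mL–19 ng/mL (synthetic peptides) or 100 µg/mL–25 ng/mL (recombinant HRNR fragments), and colonies were counted after 16 h at 37 °C.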

thermolysin = thermolysin (Bacillus thermoproteolyticus, UniProt P00800); details: 10 µg, 18 h 37 °C, 10 ng to 10 pg, SDS-PAGE and HRNR Western blot, n = 3
Chain of thermolysin (P00800 233-548): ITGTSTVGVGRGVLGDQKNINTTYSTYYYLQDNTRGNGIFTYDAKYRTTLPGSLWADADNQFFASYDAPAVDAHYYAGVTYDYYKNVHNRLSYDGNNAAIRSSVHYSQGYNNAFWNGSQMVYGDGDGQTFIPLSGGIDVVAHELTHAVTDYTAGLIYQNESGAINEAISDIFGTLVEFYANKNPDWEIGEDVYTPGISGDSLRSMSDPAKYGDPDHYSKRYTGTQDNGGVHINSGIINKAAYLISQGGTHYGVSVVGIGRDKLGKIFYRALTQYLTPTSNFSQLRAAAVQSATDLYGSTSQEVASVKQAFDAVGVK

α-chymotrypsin = test system: T5, α-chymotrypsin; assay: Protease sensitivity testing of HRNR; assay type: in vitro ADME, human; details: 10 µg, 18 h 37 °C, 1 ng to 1 pg, SDS-PAGE and HRNR Western blot, n = 3
T5 construct: purchased Sigma
T5 sequence (P17538 34-164 limits assumed, other chains not shown): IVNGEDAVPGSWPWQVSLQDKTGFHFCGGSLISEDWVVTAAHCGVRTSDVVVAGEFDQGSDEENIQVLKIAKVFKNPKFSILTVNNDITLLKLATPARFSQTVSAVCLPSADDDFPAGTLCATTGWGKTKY
T5 sequence (P17538 167-263 limits assumed, other chains not shown): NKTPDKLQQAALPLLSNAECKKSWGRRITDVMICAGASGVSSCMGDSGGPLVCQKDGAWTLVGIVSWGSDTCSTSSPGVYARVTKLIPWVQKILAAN
Excerpt: as §1

P. aeruginosa ATCC 10145 = details: CFU assay, 10 mM NaP, pH 5.5, 0.25% glucose

Molecule | digestion by trypsin (trypsin; 500 ng, 0.7 nM protease, pH 7.5, 15 h, Western blot, n = 3) | digestion by KLK7 (KLK7) | digestion by KLK1 (KLK1) | digestion by LysC (Lys-C; 500 ng, 0.7 nM protease, pH 7.5, 15 h, Western blot) | sensitivity towards trypsin (trypsin; 10 µg, 18 h 37 °C, 100 pg to 0,1 pg trypsin (not modified), SDS-PAGE and HRNR Western blot, n = 3) | amount of unmodified trypsin that digests (trypsin; 10 µg, 18 h 37 °C, SDS-PAGE and HRNR Western blot) [pg] | LD90 (C. albicans ATCC 24433) [µg/mL] | LD100 (C. albicans ATCC 24433) [µg/mL] | sensitivity towards enterokinase EKMax (enterokinase EKMax) | LD90 (E. coli ATCC 11775) [µg/mL] | LD100 (E. coli ATCC 11775) [µg/mL] | sensitivity towards thermolysin (thermolysin) | sensitivity towards α-chymotrypsin (α-chymotrypsin) | LD90 (P. aeruginosa ATCC 10145) [µg/mL] | LD100 (P. aeruginosa ATCC 10145) [µg/mL] | sensitivity towards Lys-C (Lys-C; 10 µg, 18 h 37 °C, 10 ng to 10 pg, SDS-PAGE and HRNR Western blot)
B1 | digest | digest | digest | digest | – | – | – | – | – | – | – | – | – | – | – | –
B2 | – | – | – | – | highly sensitive | 1 | 0.55 | >140 | highly sensitive | 0.55 | >100 | highly sensitive | highly sensitive | 0.035 | 0.275 | highly sensitive
